Measurements as given in patent publication US20160113911A1, “METHODS AND COMPOSITIONS FOR THE TREATMENT OF CANCER” (THE GENERAL HOSPITAL CORPORATION, priority 2013, published 2016).
Changes are numbered by the printed parent chain. Names and notes keep the numbering of the source.

B1: 2A-R218W: KDM4A mutation (protein)
chain: MASESETLNPSARIMTFYPTMEEFRNFSRYIAYIESQGAHRAGLAKVVPPKEWKPRASYDDIDDLVIPAPIQQLVTGQSGLFTQYNIQKKAMTVREFRKIANSDKYCTPRYSEFEELERKYWKNLTFNPPIYGADVNGTLYEKHVDEWNIGRLRTILDLVEKESGITIEGVNTPYLYFGMWKTSFAWHTEDMDLYSINYLHFGEPKSWYSVPPEHGKWLERLAKGFFPGSAQSCEAFLRHKMTLISPLMLKKYGIPFDKVTQEAGEFMITFPYGYHAGFNHGFNCAESTNFATRRWIEYGKQAVLCSCRKDMVKISMDVFVRKFQPERYKLWKAGKDNTVIDHTLPTPEAAEFLKESELPPRAGNEEECPEEDMEGVEDGEEGDLKTSLAKHRIGTKRHRVCLEIPQEVSQSELFPKEDLSSEQYEMTECPAALAPVRPTHSSVRQVEDGLTFPDYSDSTEVKFEELKNVKLEEEDEEEEQAAAALDLSVNPASVGGRLVFSGSKKKSSSSLGSGSSRDSISSDSETSEPLSCRAQGQTGVLTVHSYAKGDGRVTVGEPCTRKKGSAARSFSERELAEVADEYMFSLEENKKSKGRRQPLSKLPRHHPLVLQECVSDDETSEQLTPEEEAEETEAWAKPLSQLWQNRPPNFEAEKEFNETMAQQAPHCAVCMIFQTYHQVEFGGFNQNCGNASDLAPQKQRTKPLIPEMCFTSTGCSTDINLSTPYLEEDGTSILVSCKKCSVRVHASCYGVPPAKASEDWMCSRCSANALEEDCCLCSLRGGALQRANDDRWVHVSCAVAILEARFVNIAERSPVDVSKIPLPRFKLKCIFCKKRRKRTAGCCVQCSHGRCPTAFHVSCAQAAGVMMQPDDWPFVVFITCFRHKIPNLERAKGALQSITAGQKVISKHKNGRFYQCEVVRLTTETFYEVNFDDGSFSDNLYPEDIVSQDCLQFGPPAEGEVVQVRWTDGQVYGAKFVASHPIQMYQVEFEDGSQLVVKRDDVYTLDEELPKRVKSRLSVASDMRFNEIFTEKEVKQEKKRQRVINSRYREDYIEPALYRAIME
B2: 2A-G376V: KDM4A mutation (protein)
chain: B1 chain with W218R, G376V
B3: 2A-R498H: KDM4A mutation (protein)
chain: B1 chain with W218R, R498H
B4: 2A-G278S: KDM4A mutation (protein)
chain: B1 chain with W218R, G278S
B5: 2A-T289I: KDM4A mutation (protein)
chain: B1 chain with W218R, T289I
B6: 2A-P348L: KDM4A mutation (protein)
chain: B1 chain with W218R, P348L
B7: 2A-G225C: KDM4A mutation (protein)
chain: B1 chain with W218R, G225C
B8: 2A-A236V: KDM4A mutation (protein)
chain: B1 chain with W218R, A236V
B9: 2A-E368K: KDM4A mutation (protein)
chain: B1 chain with W218R, E368K
B10: 2A-R400Q: KDM4A mutation (protein)
chain: B1 chain with W218R, R400Q
B11: 2A-V319M: KDM4A mutation (protein)
chain: B1 chain with W218R, V319M
B12: 2A-E558Q: KDM4A mutation (protein)
chain: B1 chain with W218R, E558Q
B13: 2A-D524V: KDM4A mutation (protein)
chain: B1 chain with W218R, D524V
B14: 2A-R239H: KDM4A mutation (protein)
chain: B1 chain with W218R, R239H
B15: 2A-V490M: KDM4A mutation (protein)
chain: B1 chain with W218R, V490M
B16: 2A-P326T: KDM4A mutation (protein)
chain: B1 chain with W218R, P326T
B17: 2A-E426K: KDM4A mutation (protein)
chain: B1 chain with W218R, E426K

Test system: H3K9me3
Test: H3K9 demethylase activity of KDM4 variants in transfected cells
Assay type: cell-based
Design: key: + indicates active; − indicates inactive; +/− indicates partial acitivty
Details: KDM4A mutations

| Molecule | H3k9 Demethylase Activity |
| --- | --- |
| B1 | + |
| B2 | + |
| B3 | + |
| B4 | − |
| B5 | +/− |
| B6 | + |
| B7 | + |
| B8 | + |
| B9 | + |
| B10 | + |
| B11 | + |
| B12 | + |
| B13 | + |
| B14 | +/− |
| B15 | + |
| B16 | + |
| B17 | + |

Test system: H3K36me3
Test: H3K36 demethylase activity of KDM4A variants in transfected cells (immunofluorescence)
Assay type: cell-based
Design: key: + indicates active; − indicates inactive; +/− indicates partial acitivty
Details: KDM4A mutations
Experimental: The indicated NHF-tagged KDM4A deletion constructs were transfected into RPE cells grown on coverslips in 10 cm dishes using X-tremeGENE 9™ DNA transfection reagent (Roche). H3K36me3 and subcellular localization were assayed by examining transfected cells (positive for HA staining; HA.11 Covance) following fixation in 3.7% PFA in PBS (Whetstine et al., 2006).
All immunofluorescence experiments were performed as in (Black et al., 2013). For the localization experiment a minimum of 50 cells were blinded and scored. For the catalytic activity, cells overexpressing a high level of KDM4A WT or SNP-A482 were analyzed in a non quantitative manner.

| Molecule | H3k36 Demethylase Activity |
| --- | --- |
| B1 | − |
| B2 | + |
| B3 | + |
| B4 | − |
| B5 | − |
| B6 | + |
| B7 | +/− |
| B8 | + |
| B9 | + |
| B10 | + |
| B11 | + |
| B12 | + |
| B13 | + |
| B14 | +/− |
| B15 | + |
| B16 | + |
| B17 | + |
